The values below are quoted from earlier work in publication PMC3338619, “Ligand Binding Study of Human PEBP1/RKIP: Interaction with Nucleotides and Raf-1 Peptides Evidenced by NMR and Mass Spectrometry” (PLoS ONE, 2012).

pKd: −log10 of the molar value.

The target in the series is Raf-1 tri-phosphorylated peptide (Homo sapiens) (UniProt P04049).

For the substance rPEBP1 (from UniProt P31044), the pKd is 4.70.

The pKd is −log10 of the Kd, conventionally taken in molar units.
